Experimental data published in patent publication US8158376B2, “Bisubstrate fluorescent probe binding to protein kinases” (University of Tartu, priority 2006, dated 2012).
Where two headings read alike, the source gives them in different places.

Assays:
Assay in all cases: Kinase selectivity panel
Type in all cases: biochemical
JNK3 = JNK3 (Homo sapiens, UniProt P53779); details: read-out: residual activity (%) JNK3
Procedure: (§1) The panel of kinases included all 52 kinases available for testing.
(§2) The assay of protein kinases was performed at 30° C. as described previously [Davies et al., Biochem. J. 351 (2000) 95; Murray et al., Biochem. J. 384 (2004) 477].

CK2 = CK2 (Homo sapiens, UniProt P68400); details: read-out: residual activity (%) CK2
Procedure: as §1, §2

IKKb = target: T1, IKKb (Homo sapiens, UniProt O14920); details: read-out: residual activity (%) IKKb
T1 sequence (O14920 1-756): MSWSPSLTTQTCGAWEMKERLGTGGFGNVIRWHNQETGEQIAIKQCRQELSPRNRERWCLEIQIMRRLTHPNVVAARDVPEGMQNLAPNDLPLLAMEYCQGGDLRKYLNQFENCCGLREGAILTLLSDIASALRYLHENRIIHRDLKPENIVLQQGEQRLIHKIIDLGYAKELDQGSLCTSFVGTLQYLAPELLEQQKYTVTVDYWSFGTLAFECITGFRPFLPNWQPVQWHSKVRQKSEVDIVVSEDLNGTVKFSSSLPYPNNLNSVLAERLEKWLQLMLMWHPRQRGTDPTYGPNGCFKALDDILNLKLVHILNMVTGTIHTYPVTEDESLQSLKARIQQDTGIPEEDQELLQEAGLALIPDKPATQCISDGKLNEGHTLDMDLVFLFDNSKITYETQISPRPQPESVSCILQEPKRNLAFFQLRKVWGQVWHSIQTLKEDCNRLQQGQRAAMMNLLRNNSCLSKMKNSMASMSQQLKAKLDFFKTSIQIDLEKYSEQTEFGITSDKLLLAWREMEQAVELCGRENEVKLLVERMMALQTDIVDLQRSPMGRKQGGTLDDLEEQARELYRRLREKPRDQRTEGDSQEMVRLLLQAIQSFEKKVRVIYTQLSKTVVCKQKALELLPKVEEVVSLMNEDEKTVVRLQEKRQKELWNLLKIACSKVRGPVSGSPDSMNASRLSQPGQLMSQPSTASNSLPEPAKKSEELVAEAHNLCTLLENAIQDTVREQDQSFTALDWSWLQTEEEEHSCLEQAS
Procedure: as §1, §2

smMLCK = smMLCK (Homo sapiens, UniProt Q15746); details: read-out: residual activity (%) smMLCK
Procedure: as §1, §2

P70 S6K = P70 S6K (Homo sapiens, UniProt P23443); details: ATP 20 μM
Procedure: as §1, §2

NEK2a = target: T2, NEK2a (Homo sapiens, UniProt P51955); details: read-out: residual activity (%) NEK2a
T2 sequence (P51955 1-445): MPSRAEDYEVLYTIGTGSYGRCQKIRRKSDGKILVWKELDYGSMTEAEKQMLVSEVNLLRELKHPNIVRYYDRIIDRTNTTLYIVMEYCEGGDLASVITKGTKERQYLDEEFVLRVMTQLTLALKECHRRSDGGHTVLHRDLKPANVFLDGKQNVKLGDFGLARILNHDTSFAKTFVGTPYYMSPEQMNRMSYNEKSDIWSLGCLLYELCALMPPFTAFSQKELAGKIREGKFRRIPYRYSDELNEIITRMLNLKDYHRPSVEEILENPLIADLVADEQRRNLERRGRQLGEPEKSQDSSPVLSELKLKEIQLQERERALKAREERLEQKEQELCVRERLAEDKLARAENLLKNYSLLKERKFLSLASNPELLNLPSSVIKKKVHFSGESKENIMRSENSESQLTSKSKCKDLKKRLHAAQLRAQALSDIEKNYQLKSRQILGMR
Procedure: as §1, §2

GSK3b = GSK3b (Homo sapiens, UniProt P49841); details: read-out: residual activity (%) GSK3b
Procedure: as §1, §2

eEF2K = target: T3, eEF2K (Homo sapiens, UniProt O00418); details: read-out: residual activity (%) eEF2K
T3 sequence (O00418 1-725): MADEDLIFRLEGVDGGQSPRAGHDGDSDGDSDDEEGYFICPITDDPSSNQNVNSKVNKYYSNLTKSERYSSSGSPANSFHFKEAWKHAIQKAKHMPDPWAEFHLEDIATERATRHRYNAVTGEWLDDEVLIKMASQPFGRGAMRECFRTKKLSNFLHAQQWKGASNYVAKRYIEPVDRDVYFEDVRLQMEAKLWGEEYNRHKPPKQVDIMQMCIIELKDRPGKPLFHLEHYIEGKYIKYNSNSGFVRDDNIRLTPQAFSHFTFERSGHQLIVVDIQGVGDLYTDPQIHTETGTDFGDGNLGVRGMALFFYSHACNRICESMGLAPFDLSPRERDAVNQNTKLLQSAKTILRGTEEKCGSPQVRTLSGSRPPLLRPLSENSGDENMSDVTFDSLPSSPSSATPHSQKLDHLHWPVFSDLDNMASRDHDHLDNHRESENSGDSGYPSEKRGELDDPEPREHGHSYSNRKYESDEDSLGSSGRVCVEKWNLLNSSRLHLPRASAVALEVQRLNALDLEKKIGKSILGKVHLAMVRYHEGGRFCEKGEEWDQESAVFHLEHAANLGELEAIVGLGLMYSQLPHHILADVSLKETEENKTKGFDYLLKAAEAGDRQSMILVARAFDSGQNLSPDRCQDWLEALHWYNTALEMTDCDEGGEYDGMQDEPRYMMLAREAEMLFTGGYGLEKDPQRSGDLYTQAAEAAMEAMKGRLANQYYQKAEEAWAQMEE
Procedure: as §1, §2

PRK2 = PRK2 (Homo sapiens, UniProt Q16513); details: read-out: residual activity (%) PRK2
Procedure: as §1, §2

PIM2 = PIM2 (Homo sapiens, UniProt Q9P1W9); details: read-out: residual activity (%) PIM2
Procedure: as §1, §2

MAPKAP-K2 = MAPKAP-K2 (Homo sapiens, UniProt P49137); details: read-out: residual activity (%) MAPKAP-K2
Procedure: as §1, §2

P70 S6K, sequence (P23443 whole entry): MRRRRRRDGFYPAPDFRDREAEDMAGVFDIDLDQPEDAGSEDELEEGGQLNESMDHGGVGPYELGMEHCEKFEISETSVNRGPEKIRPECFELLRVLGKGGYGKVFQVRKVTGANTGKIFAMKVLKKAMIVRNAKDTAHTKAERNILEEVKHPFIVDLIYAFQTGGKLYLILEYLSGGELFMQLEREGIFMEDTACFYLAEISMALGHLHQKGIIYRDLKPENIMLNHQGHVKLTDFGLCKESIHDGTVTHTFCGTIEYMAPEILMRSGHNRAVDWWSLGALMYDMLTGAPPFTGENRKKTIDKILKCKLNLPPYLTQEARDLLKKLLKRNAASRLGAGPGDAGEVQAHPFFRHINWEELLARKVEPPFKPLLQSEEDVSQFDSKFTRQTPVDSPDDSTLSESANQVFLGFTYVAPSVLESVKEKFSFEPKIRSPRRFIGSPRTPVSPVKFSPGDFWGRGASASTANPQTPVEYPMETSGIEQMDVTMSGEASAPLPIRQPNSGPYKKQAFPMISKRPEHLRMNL
CK2, sequence (P68400 whole entry): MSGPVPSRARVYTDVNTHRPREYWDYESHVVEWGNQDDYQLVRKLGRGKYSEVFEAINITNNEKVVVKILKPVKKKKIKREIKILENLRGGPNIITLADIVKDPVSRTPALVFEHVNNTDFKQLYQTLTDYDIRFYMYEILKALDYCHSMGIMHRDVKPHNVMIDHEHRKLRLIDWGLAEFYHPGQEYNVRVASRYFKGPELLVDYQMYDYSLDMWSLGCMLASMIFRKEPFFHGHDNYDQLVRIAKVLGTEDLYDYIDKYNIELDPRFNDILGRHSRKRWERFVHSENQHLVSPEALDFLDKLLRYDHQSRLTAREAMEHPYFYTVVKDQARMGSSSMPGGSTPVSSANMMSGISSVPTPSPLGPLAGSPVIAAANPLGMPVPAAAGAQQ
PRK2, sequence (Q16513 whole entry, species assumed): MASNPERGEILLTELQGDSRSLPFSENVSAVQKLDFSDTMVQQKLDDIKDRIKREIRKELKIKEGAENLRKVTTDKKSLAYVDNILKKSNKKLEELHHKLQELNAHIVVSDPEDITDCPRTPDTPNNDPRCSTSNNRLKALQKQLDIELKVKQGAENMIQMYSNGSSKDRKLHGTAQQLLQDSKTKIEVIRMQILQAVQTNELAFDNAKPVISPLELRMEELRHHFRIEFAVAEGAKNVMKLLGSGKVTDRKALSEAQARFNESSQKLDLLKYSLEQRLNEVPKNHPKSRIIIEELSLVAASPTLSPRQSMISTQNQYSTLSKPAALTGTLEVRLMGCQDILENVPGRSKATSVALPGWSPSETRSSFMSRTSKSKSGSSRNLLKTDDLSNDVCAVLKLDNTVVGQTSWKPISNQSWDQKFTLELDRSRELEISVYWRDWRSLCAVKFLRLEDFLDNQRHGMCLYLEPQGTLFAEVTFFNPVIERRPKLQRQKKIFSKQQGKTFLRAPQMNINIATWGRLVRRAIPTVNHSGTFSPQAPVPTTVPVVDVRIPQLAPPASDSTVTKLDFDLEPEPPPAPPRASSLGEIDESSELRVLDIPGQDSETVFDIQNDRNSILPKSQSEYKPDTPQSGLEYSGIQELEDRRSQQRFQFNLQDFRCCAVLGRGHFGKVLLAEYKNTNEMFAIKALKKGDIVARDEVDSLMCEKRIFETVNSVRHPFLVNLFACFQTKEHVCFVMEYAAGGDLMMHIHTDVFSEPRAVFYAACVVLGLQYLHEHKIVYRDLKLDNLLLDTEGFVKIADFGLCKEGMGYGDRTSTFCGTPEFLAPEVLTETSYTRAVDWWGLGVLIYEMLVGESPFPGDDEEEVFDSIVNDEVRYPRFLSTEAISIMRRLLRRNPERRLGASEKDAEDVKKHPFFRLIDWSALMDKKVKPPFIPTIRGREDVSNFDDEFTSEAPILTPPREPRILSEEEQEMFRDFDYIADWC
GSK3b, sequence (P49841 whole entry, species assumed): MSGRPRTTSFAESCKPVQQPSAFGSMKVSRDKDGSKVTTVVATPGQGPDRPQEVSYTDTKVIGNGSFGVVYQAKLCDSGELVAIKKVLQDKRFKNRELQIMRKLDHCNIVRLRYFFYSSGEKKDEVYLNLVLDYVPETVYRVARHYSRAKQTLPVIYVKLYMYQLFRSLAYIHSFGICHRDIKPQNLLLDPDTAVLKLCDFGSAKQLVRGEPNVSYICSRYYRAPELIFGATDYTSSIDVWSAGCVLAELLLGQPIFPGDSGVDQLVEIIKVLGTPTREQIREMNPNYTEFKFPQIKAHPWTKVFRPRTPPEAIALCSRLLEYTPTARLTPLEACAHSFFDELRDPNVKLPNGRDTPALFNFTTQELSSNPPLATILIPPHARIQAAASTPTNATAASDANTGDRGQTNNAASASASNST
PIM2, sequence (Q9P1W9 whole entry, species assumed): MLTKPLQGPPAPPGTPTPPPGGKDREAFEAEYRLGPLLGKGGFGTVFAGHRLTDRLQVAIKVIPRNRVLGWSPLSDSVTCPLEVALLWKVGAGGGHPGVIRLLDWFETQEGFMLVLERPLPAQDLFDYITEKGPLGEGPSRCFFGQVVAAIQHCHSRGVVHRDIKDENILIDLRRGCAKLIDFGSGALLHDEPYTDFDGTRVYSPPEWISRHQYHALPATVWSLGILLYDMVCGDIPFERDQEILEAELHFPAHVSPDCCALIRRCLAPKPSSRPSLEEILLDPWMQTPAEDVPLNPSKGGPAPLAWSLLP
MAPKAP-K2, sequence (P49137 whole entry, species assumed): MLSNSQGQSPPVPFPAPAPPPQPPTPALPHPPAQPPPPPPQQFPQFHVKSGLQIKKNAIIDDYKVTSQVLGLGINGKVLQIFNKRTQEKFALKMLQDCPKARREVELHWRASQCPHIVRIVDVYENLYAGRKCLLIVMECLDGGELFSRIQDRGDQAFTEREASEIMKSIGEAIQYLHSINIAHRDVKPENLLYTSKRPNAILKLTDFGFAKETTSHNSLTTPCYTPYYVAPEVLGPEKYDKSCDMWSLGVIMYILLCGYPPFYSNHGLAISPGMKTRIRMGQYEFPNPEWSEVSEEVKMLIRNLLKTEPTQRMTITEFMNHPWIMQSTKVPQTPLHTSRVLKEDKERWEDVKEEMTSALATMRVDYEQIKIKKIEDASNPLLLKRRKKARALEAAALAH
JNK3, sequence (P53779 whole entry, species assumed): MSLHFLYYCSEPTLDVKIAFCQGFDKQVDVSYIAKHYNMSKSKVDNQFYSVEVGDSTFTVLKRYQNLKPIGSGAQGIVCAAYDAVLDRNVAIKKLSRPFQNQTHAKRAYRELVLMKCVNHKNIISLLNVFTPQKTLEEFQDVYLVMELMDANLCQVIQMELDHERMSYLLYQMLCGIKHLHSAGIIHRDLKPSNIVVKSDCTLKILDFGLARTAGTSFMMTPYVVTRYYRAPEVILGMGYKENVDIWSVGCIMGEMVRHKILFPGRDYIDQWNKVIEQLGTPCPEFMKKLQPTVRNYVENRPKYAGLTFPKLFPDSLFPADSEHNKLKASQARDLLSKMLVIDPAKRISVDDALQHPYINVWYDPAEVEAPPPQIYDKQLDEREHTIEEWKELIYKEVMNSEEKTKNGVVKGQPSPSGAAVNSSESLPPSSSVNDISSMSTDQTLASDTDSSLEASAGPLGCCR

## N=C(N)NCCC[C@@H](NC(=O)[C@@H](CCCNC(=N)N)NC(=O)[C@@H](CCCNC(=N)N)NC(=O)[C@@H](CCCNC(=N)N)NC(=O)[C@@H](CCCNC(=N)N)NC(=O)[C@@H](CCCNC(=N)N)NC(=O)CCCCCNC(=O)[C@H]1O[C@@H](n2cnc3c(N)ncnc32)[C@H](O)[C@@H]1O)C(N)=O [Compound 5, AdcAhx(D-Arg)6-NH2]
JNK3
  remaining activity at 1 µM: 91%
CK2
  remaining activity at 1 µM: 104%
IKKb
  remaining activity at 1 µM: 94%
smMLCK
  remaining activity at 1 µM: 72%
P70 S6K; inhibitor 1 μM
  residual activity (%) P70 S6K: 7 (±2) %
P70 S6K; read-out: residual activity (%) P70 S6K, inhibitor 1 μM
  remaining activity at 1 µM: 7 to 28%
NEK2a
  remaining activity at 1 µM: 82%
GSK3b
  remaining activity at 1 µM: 56%
eEF2K
  remaining activity at 1 µM: 92%
PRK2
  remaining activity at 1 µM: 2%
PIM2
  remaining activity at 1 µM: 38%
MAPKAP-K2
  remaining activity at 1 µM: 85%

## N=C(N)NCCC[C@@H](NC(=O)[C@@H](CCCNC(=N)N)NC(=O)[C@@H](CCCNC(=N)N)NC(=O)[C@@H](CCCNC(=N)N)NC(=O)[C@@H](CCCNC(=N)N)NC(=O)[C@@H](CCCNC(=N)N)NC(=O)CCCCCNCCNS(=O)(=O)c1cccc2cnccc12)C(N)=O [Compound 26, H9-Hex(D-Arg)6-NH2]
JNK3; inhibitor 1 μM, ATP 50 μM
  remaining activity at 1 µM: 92%
CK2; inhibitor 1 μM, ATP 5 μM
  remaining activity at 1 µM: 87%
IKKb; inhibitor 1 μM, ATP 5 μM
  remaining activity at 1 µM: 87%
smMLCK; inhibitor 1 μM, ATP 50 μM
  remaining activity at 1 µM: 90%
P70 S6K; inhibitor 1 μM, read-out: residual activity (%) P70 S6K
  remaining activity at 1 µM: 2%
NEK2a; inhibitor 1 μM, ATP 50 μM
  remaining activity at 1 µM: 98%
GSK3b; inhibitor 1 μM, ATP 5 μM
  remaining activity at 1 µM: 94%
eEF2K; inhibitor 1 μM, ATP 5 μM
  remaining activity at 1 µM: 91%
PRK2; inhibitor 1 μM, ATP 5 μM
  remaining activity at 1 µM: 2%
PIM2; inhibitor 1 μM, ATP 5 μM
  remaining activity at 1 µM: < 10%
MAPKAP-K2; inhibitor 1 μM, ATP 20 μM
  remaining activity at 1 µM: 80%
